The source of these data is the supplement of paper PMC10567573.

The labels stand for the following.
B1: FBXO39 (parent)
chain: RVFKARIYTNRYETNEEDKTLQEI
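Also: lentivirally expressed fusions sorted by FACS into six bins by GFP to DsRed ratio, PSI derived from sequencing read proportions per bin multiplied by bin number.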

The variants in this data set derive from B1. Put plainly: protein stability index of a GFP-peptide fusion (GPS, HEK-293T) (PSI 1-6); higher = more stable. As to conditions: c terminus: a fixed tail appended.
Consider RVSKARIYTNRYETNEEDKTLQEI [F3S], for which the protein stability index was found to be 4.54. As for RVIKARIYTNRYETNEEDKTLQEI [F3I], the protein stability index was 4.61. For RVYKARIYTNRYETNEEDKTLQEI [F3Y], the protein stability index was found to be 2.59. On to RVMKARIYTNRYETNEEDKTLQEI [F3M], for which the protein stability index was 4.41. The same measure for RVKKARIYTNRYETNEEDKTLQEI [F3K]: 4.32; for HVFKARIYTNRYETNEEDKTLQEI [R1H]: 3.35; for IVFKARIYTNRYETNEEDKTLQEI [R1I]: 3.15.

As to MVFKARIYTNRYETNEEDKTLQEI [R1M], the protein stability index came out at 3.34. For the variant GVFKARIYTNRYETNEEDKTLQEI [R1G], the protein stability index stood at 3.42. The same measure for VVFKARIYTNRYETNEEDKTLQEI [R1V]: 1.66; for PVFKARIYTNRYETNEEDKTLQEI [R1P]: 4.26. Regarding AVFKARIYTNRYETNEEDKTLQEI [R1A], the protein stability index was determined as 2.84. In the case of LVFKARIYTNRYETNEEDKTLQEI [R1L], the protein stability index was determined as 2.74. The result for KVFKARIYTNRYETNEEDKTLQEI [R1K] reads 2.6; that for CVFKARIYTNRYETNEEDKTLQEI [R1C], 1.7.

In the case of TVFKARIYTNRYETNEEDKTLQEI [R1T], the protein stability index amounted to 2.72. Turning to FVFKARIYTNRYETNEEDKTLQEI [R1F], the protein stability index turned out to be 1.66.

As for SVFKARIYTNRYETNEEDKTLQEI [R1S], the protein stability index turned out to be 2.72.

Turning to YVFKARIYTNRYETNEEDKTLQEI [R1Y], the protein stability index is 2.14. On to DVFKARIYTNRYETNEEDKTLQEI [R1D], for which the protein stability index came to 3.95. The same measure for WVFKARIYTNRYETNEEDKTLQEI [R1W]: 2.08; for QVFKARIYTNRYETNEEDKTLQEI [R1Q]: 3.74.

As to RVFKARIATNRYETNEEDKTLQEI [Y8A], the protein stability index is 3.84. As for RVFKARINTNRYETNEEDKTLQEI [Y8N], the protein stability index came to 3.97. The same measure for RVFKARIQTNRYETNEEDKTLQEI [Y8Q]: 2.77; for RVFKARITTNRYETNEEDKTLQEI [Y8T]: 2.93. With RVFKARIKTNRYETNEEDKTLQEI [Y8K], the protein stability index is 3.22. Consider RVFKARIITNRYETNEEDKTLQEI [Y8I], for which the protein stability index was found to be 2.73. On to RVFKARIVTNRYETNEEDKTLQEI [Y8V], for which the protein stability index came to 3.08. The result for RVFKARILTNRYETNEEDKTLQEI [Y8L] reads 3.21; that for RVFKARIMTNRYETNEEDKTLQEI [Y8M], 2.77. The result for RVFKARIETNRYETNEEDKTLQEI [Y8E] reads 3.93; that for RVFKARIFTNRYETNEEDKTLQEI [Y8F], 2.91. On to RVFKARIWTNRYETNEEDKTLQEI [Y8W], for which the protein stability index is 2.16. The same measure for RVFKARICTNRYETNEEDKTLQEI [Y8C]: 3.78; for RVFKARIRTNRYETNEEDKTLQEI [Y8R]: 3.15. As to RVFKARISTNRYETNEEDKTLQEI [Y8S], the protein stability index is 3.13. Regarding RVFKARIGTNRYETNEEDKTLQEI [Y8G], the protein stability index was 3.46. The same measure for RVFKARIDTNRYETNEEDKTLQEI [Y8D]: 4.51.

Consider RVFKARIPTNRYETNEEDKTLQEI [Y8P], for which the protein stability index turned out to be 2.45. Turning to RVFKARIHTNRYETNEEDKTLQEI [Y8H], the protein stability index came out at 3.27. The result for RVFKARHYTNRYETNEEDKTLQEI [I7H] reads 2.54; that for RVFKARAYTNRYETNEEDKTLQEI [I7A], 3.14; that for RVFKARPYTNRYETNEEDKTLQEI [I7P], 4.12. For RVFKARSYTNRYETNEEDKTLQEI [I7S], the protein stability index is 3.39.

As to RVFKARKYTNRYETNEEDKTLQEI [I7K], the protein stability index was 2.24. For RVFKARTYTNRYETNEEDKTLQEI [I7T], the protein stability index amounted to 3.

Take RVFKAREYTNRYETNEEDKTLQEI [I7E]: the protein stability index was found to be 3.24. In the case of RVFKARNYTNRYETNEEDKTLQEI [I7N], the protein stability index was found to be 2.7. For the variant RVFKARYYTNRYETNEEDKTLQEI [I7Y], the protein stability index was 2.39. For the variant RVFKARMYTNRYETNEEDKTLQEI [I7M], the protein stability index stood at 2.67. Regarding RVFKARFYTNRYETNEEDKTLQEI [I7F], the protein stability index is 2.67. Take RVFKARDYTNRYETNEEDKTLQEI [I7D]: the protein stability index is 4.26. The same measure for RVFKARGYTNRYETNEEDKTLQEI [I7G]: 3.64; for RVFKARWYTNRYETNEEDKTLQEI [I7W]: 3.15. Regarding RVFKARLYTNRYETNEEDKTLQEI [I7L], the protein stability index was found to be 2.9.

For the variant RVFKARRYTNRYETNEEDKTLQEI [I7R], the protein stability index was determined as 2.43.

On to RVFKARQYTNRYETNEEDKTLQEI [I7Q], for which the protein stability index was 2.74. The same measure for RVFKARCYTNRYETNEEDKTLQEI [I7C]: 2.74.

As for RMFKARIYTNRYETNEEDKTLQEI [V2M], the protein stability index amounted to 3.98. As for RNFKARIYTNRYETNEEDKTLQEI [V2N], the protein stability index is 4.09. Turning to RHFKARIYTNRYETNEEDKTLQEI [V2H], the protein stability index was found to be 3.85. The result for REFKARIYTNRYETNEEDKTLQEI [V2E] reads 4.36; that for RLFKARIYTNRYETNEEDKTLQEI [V2L], 3.19. Consider RFFKARIYTNRYETNEEDKTLQEI [V2F], for which the protein stability index turned out to be 3.18. Consider RQFKARIYTNRYETNEEDKTLQEI [V2Q], for which the protein stability index amounted to 3.37. Take RDFKARIYTNRYETNEEDKTLQEI [V2D]: the protein stability index worked out at 4.76. Regarding RWFKARIYTNRYETNEEDKTLQEI [V2W], the protein stability index was 2.45. On to RSFKARIYTNRYETNEEDKTLQEI [V2S], for which the protein stability index is 4.22. RPFKARIYTNRYETNEEDKTLQEI [V2P]: the protein stability index came out at 4.56. Consider RTFKARIYTNRYETNEEDKTLQEI [V2T], for which the protein stability index amounted to 2.89.

Consider RGFKARIYTNRYETNEEDKTLQEI [V2G], for which the protein stability index was 3.69. The same measure for RKFKARIYTNRYETNEEDKTLQEI [V2K]: 3.36; for RCFKARIYTNRYETNEEDKTLQEI [V2C]: 2.87.

Regarding RIFKARIYTNRYETNEEDKTLQEI [V2I], the protein stability index was determined as 2.51. Take RRFKARIYTNRYETNEEDKTLQEI [V2R]: the protein stability index came to 4.24.

On to RVFSARIYTNRYETNEEDKTLQEI [K4S], for which the protein stability index amounted to 3.6. Take RVFDARIYTNRYETNEEDKTLQEI [K4D]: the protein stability index worked out at 4.08. For the variant RVFCARIYTNRYETNEEDKTLQEI [K4C], the protein stability index was found to be 2.83. Take RVFTARIYTNRYETNEEDKTLQEI [K4T]: the protein stability index was found to be 4.72. Take RVFNARIYTNRYETNEEDKTLQEI [K4N]: the protein stability index came out at 3.6.

RVFLARIYTNRYETNEEDKTLQEI [K4L]: the protein stability index was determined as 1.99. The result for RVFAARIYTNRYETNEEDKTLQEI [K4A] reads 2.55. The same measure for RVFFARIYTNRYETNEEDKTLQEI [K4F]: 2.03. Turning to RVFEARIYTNRYETNEEDKTLQEI [K4E], the protein stability index worked out at 3.81. Consider RVFQARIYTNRYETNEEDKTLQEI [K4Q], for which the protein stability index was 4.48. With RVFVARIYTNRYETNEEDKTLQEI [K4V], the protein stability index stood at 2.16.

With RVFMARIYTNRYETNEEDKTLQEI [K4M], the protein stability index is 2.65. As to RVFYARIYTNRYETNEEDKTLQEI [K4Y], the protein stability index is 2.11. Take RVFRARIYTNRYETNEEDKTLQEI [K4R]: the protein stability index came out at 3.12. RVFIARIYTNRYETNEEDKTLQEI [K4I]: the protein stability index stood at 1.88.

On to RVFHARIYTNRYETNEEDKTLQEI [K4H], for which the protein stability index was found to be 3.52. Regarding RVFGARIYTNRYETNEEDKTLQEI [K4G], the protein stability index turned out to be 3.59. Take RVFPARIYTNRYETNEEDKTLQEI [K4P]: the protein stability index amounted to 4.27.
